Laboratory results from publication PMC10349855, “Structural basis for specific RNA recognition by the alternative splicing factor RBM5”.

Experiments:
[1] = molecular target: T1, RBM5 RRM1-ZnF1S (Homo sapiens, UniProt P52756 94-210, I107T;C191G); assay: ITC; Zn; 20 mM MES pH 6.5, 100 mM NaCl, 2 mM 2-mercaptoethanol, 25 C; protein 10-30 uM in the cell; one-site fit; conditions: tags: none; N-terminal Met-Gly from the NcoI site (left out)
T1 sequence: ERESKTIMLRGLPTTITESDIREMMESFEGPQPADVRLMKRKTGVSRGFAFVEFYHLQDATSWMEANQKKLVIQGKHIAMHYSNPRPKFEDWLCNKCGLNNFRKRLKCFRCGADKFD

[2] = molecular target: T2, RBM5 RRM1-ZnF1S (human, UniProt P52756 94-210, C191G); assay: ITC; N about 0.6; Discussion prints 6 uM but also 2.4-fold weaker than 263 nM; ITC: 20 mM MES pH 6.5, 100 mM NaCl, 2 mM BME, 25 C; NMR: 20 mM MES pH 6.5, 100 mM (single RRMs) or 400 mM (multidomain) NaCl, 1 mM DTT, 298 K; conditions: protein: recombinant
T2 sequence: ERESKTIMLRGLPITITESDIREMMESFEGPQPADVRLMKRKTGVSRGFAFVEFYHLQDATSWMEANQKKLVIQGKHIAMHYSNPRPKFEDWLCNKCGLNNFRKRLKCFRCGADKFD

[3] = molecular target: T3, RBM5 RRM1 (human, UniProt P52756 94-184); assay: ITC; 20 mM MES pH 6.5, 100 mM NaCl, 2 mM 2-mercaptoethanol, 25 C; protein 10-30 uM in the cell; one-site fit; conditions: tags: His-thioredoxin, TEV-cleaved (scar left out)
T3 sequence: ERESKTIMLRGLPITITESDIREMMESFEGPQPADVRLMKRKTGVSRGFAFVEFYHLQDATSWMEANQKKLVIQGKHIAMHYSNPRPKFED

[4] = molecular target: T4, RBM5 RRM1-ZnF1 F142/144A (Homo sapiens, UniProt P52756 94-210, I107T;F142A;F144A); assay: ITC; Zn; 20 mM MES pH 6.5, 100 mM NaCl, 2 mM 2-mercaptoethanol, 25 C; protein 10-30 uM in the cell; one-site fit; conditions: tags: none; N-terminal Met-Gly from the NcoI site (left out)
T4 sequence: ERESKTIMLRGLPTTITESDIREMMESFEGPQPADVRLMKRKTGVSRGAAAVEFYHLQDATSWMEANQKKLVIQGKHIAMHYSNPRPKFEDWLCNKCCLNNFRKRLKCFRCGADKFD

[5] = molecular target: T5, RBM5 RRM1-ZnF1 wt (Homo sapiens, UniProt P52756 94-210, I107T); assay: as above; conditions: tags: none; N-terminal Met-Gly from the NcoI site (left out)
T5 sequence: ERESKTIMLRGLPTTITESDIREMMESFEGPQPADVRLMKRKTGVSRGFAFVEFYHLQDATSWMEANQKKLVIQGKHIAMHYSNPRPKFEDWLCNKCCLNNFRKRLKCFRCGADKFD

[6] = molecular target: T6, RBM5 RRM1-ZnF1 R198E (Homo sapiens, UniProt P52756 94-210, I107T;R198E); assay: as above; conditions: tags: none; N-terminal Met-Gly from the NcoI site (left out)
T6 sequence: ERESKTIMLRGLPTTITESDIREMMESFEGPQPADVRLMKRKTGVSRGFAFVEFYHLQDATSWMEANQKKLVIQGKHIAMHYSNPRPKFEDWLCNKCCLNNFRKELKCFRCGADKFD

[7] = molecular target: T7, RBM5 RRM1-ZnF1 F202A (Homo sapiens, UniProt P52756 94-210, I107T;F202A); assay: as above; conditions: tags: none; N-terminal Met-Gly from the NcoI site (left out)
T7 sequence: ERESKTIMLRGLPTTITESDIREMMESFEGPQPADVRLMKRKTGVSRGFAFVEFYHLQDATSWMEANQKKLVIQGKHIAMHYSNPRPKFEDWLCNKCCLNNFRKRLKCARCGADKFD

[8] = molecular target: T8, RBM5 RRM1-ZnF1S-RRM2 (human, UniProt P52756 94-315, C191G); assay: as above; conditions: tags: His-thioredoxin, TEV-cleaved (scar left out)
T8 sequence: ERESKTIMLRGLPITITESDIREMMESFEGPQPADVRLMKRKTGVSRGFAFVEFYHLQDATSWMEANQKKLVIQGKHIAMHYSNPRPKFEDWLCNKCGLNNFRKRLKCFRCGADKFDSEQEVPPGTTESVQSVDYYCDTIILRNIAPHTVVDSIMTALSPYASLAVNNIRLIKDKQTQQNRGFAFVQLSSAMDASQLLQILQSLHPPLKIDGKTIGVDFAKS

[9] = molecular target: T9, RBM5 RRM1-ZnF1 F142A/F144A (human, UniProt P52756 94-210, F142A;F144A); assay: ITC; ITC: 20 mM MES pH 6.5, 100 mM NaCl, 2 mM BME, 25 C; NMR: 20 mM MES pH 6.5, 100 mM (single RRMs) or 400 mM (multidomain) NaCl, 1 mM DTT, 298 K; conditions: protein: recombinant
T9 sequence: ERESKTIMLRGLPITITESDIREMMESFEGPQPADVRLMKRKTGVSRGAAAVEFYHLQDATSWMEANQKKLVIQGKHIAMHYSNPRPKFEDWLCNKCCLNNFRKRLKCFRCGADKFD

[10] = molecular target: T2, RBM5 RRM1-ZnF1S; assay: as above; conditions: protein: recombinant
[11] = molecular target: T10, RBM5 RRM1-ZnF1 F202A (human, UniProt P52756 94-210, F202A); assay: as above; conditions: protein: recombinant
T10 sequence: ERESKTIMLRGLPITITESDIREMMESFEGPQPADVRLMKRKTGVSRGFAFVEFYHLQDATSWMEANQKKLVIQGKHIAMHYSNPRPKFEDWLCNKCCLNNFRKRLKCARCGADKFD

[12] = molecular target: T11, RBM5 RRM1-ZnF1 R198E (human, UniProt P52756 94-210, R198E); assay: as above; conditions: protein: recombinant
T11 sequence: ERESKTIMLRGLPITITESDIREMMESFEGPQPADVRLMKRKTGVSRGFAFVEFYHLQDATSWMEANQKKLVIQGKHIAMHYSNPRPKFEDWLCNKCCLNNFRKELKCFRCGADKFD

[13] = molecular target: T12, RBM5 RRM2 (human, UniProt P52756 231-315); assay: ITC; average of two; ITC: 20 mM MES pH 6.5, 100 mM NaCl, 2 mM BME, 25 C; NMR: 20 mM MES pH 6.5, 100 mM (single RRMs) or 400 mM (multidomain) NaCl, 1 mM DTT, 298 K; conditions: protein: recombinant; tags: His-Trx tag, TEV cleaved
T12 sequence: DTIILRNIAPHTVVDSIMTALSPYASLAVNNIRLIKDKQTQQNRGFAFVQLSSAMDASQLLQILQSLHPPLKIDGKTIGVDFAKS

[14] = molecular target: T13, RBM5 RRM1-ZnF1 wt (human, UniProt P52756 94-210); assay: ITC; average of two; text 153 nM; ITC: 20 mM MES pH 6.5, 100 mM NaCl, 2 mM BME, 25 C; NMR: 20 mM MES pH 6.5, 100 mM (single RRMs) or 400 mM (multidomain) NaCl, 1 mM DTT, 298 K; conditions: protein: recombinant
T13 sequence: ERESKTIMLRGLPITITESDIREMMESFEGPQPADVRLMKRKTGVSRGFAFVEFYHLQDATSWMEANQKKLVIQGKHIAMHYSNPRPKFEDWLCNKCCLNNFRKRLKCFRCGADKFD

[15] = molecular target: T14, RBM5 RRM1 F142A/F144A (human, UniProt P52756 94-184, F142A;F144A); assay: NMR; 20 mM MES pH 6.5, 100 mM NaCl, 1 mM DTT, 25 C; protein 0.1-0.2 mM; conditions: tags: His-thioredoxin, TEV-cleaved (scar left out)
T14 sequence: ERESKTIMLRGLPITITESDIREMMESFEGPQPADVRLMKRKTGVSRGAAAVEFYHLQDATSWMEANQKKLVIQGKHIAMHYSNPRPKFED

[16] = molecular target: T13, RBM5 RRM1-ZnF1 wt; assay: ITC; ITC: 20 mM MES pH 6.5, 100 mM NaCl, 2 mM BME, 25 C; NMR: 20 mM MES pH 6.5, 100 mM (single RRMs) or 400 mM (multidomain) NaCl, 1 mM DTT, 298 K; conditions: protein: recombinant
[17] = molecular target: T2, RBM5 RRM1-ZnF1S; assay: X-ray crystallography; Zn2+; 3.5 A; ITC: 20 mM MES pH 6.5, 100 mM NaCl, 2 mM BME, 25 C; NMR: 20 mM MES pH 6.5, 100 mM (single RRMs) or 400 mM (multidomain) NaCl, 1 mM DTT, 298 K; conditions: protein: recombinant

Binder ACUUGGCUCUUCUCU (ssRNA) [eGGCU_12] has a Kd [1] of 641 ± 125 nM and a Kd [2] of 641 ± 125 nM.

For UGGCUCUUCUCU (ssRNA) [GGCU_12], the Kd [3] was 1880 ± 950 nM, the Kd [1] was 263 ± 27 nM and the Kd [4] was 448 ± 36 nM. It also gave a Kd [5] of 153 ± 69 nM, a Kd [6] of 2660 ± 380 nM and a Kd [7] of 379 ± 41 nM. For the same binder, the Kd [8] was 133 ± 12 nM, the Kd [9] was 448 nM and the Kd [10] was 263 ± 27 nM. The Kd [11] was 379 nM, the Kd [12] was 2700 nM and the Kd [13] was 173000 nM. It also gave a Kd [14] of 153 nM.

UCUCUUCUC (ssRNA) [CU_9] was tested, and the binding result [15] was “no binding”, the Kd [3] was 19700 ± 6500 nM and the Kd [5] was 5560 ± 2830 nM. The Kd [16] was 6000 nM.

UGGCUCUUCU (ssRNA) [GGCU_10]: binds [17].
